Results published in patent US20200400662A1 (ALX ONCOLOGY, published 2020).

Target: Drug A
Experiment: cell-based or functional assay

B1: Fab of Antibody B (Fab, V domains shown)
VH: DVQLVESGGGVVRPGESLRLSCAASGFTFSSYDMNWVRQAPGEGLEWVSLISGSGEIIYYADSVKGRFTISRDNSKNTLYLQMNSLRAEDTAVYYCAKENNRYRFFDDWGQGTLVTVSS
VL: ETVLTQSPGTLTLSPGERATLTCRASQSVYTYLAWYQEKPGQAPRLLIYGASSRATGIPDRFSGSGSGTEFTLTISSLQSEDFAVYYCQQYYDRPPLTFGGGTKVEIK
hemagglutination of Drug A-coated erythrocytes with anti-IgG; molar excess of Fab that prevented it: 400 fold molar excess relative to Drug A
